In paper PMC4512291 (Angewandte Chemie (International Ed. in English), 2015):

Molecular target: HPV16 E6 (GPCA fusion) (HPV16, UniProt P03126 1-158)
Test: split reporter

B1: PDZ-LxxLL chimera fused to a Gaussia princeps luciferase fragment (GPCA) (designed binder)
chain: GKPFFTRNPSELKGKFIHTKLRKSSRGFGFTVVGGDEPDEFLQIKSLVLDGPAALDGKMETGDVIVSVNDTCVLGHTHAQVVKIFQSIPIGASVDLELCRGYPLPFDPDDPNTSLVTSVAILDKEPAAAELTLQELLGEER
  fold increase of the GPCA binding signal over that with LxxLL: 75 fold
  fold increase of the GPCA binding signal over that with PDZ: 25 fold
